# Assay results taken from article doi:10.1101/2025.05.22.655646 (bioRxiv, 2025).
# B1: G001_gp1_V10_VRC01c_2021-0087 (antibody, V domains shown)
# VH: QVQLVQSGAEVKKPGASVKVSCKASGYTFTGNYIHWVRQAPGQGLEWVGWLNPNSGGTNYAQQFQGRVTMTRDTSISTAYMELNRLRSDDTAVFYCARGLWQWEFRYWGQGTLVTVSS
# VL: DIVLTQSPGTLSLSPGERATLSCRASQSVSSSNLAWYQQKPGQAPRLLIYGASSRATGIPDRFSGSGSGTDFTLTISRLEPEDCAVYYCQQYEGFGGGTKVEIK
# notes: also called G001-0087
# B2: G001_gp1_V10_VRC01c_179 (antibody, V domains shown)
# VH: QVQLVQSGADVKKPGASVKVSCKASGYTFTDYYMHWVRQAPGQGLEWMGWINPNSGGTNYAQKFQDRVTMTRDTSVSTAYMEVSGLRSDDTAVYYCARIKLCNGGSCNWSLGYWGQGSLVTVSS
# VL: DIQMTQSPSSLSASVGDRVTITCQASQDISNYLNWYQQKPGKAPKLLIYGASNLETGVPSRFSGSGSGTDFTFTISSLQPEDIATYYCQQYEFFGPGTKVDIK
# notes: also called G001-179
# B3: G001_LD_07A_VRC01c_59 (antibody, V domains shown)
# VH: QVQLVQSGAEVKKPGTSVKVSCKASEYTFTGYYVHWVRQAPGQGLEWMGWINPNSGGTNYAQKFQGWVTMTRDTSISTAYMELSRLKSDDTAVYYCARSDYISSWYFGYWGQGTLVTVSS
# VL: EIVMTQSPATLSVSPGERATLSCRASQSVSSNLAWYQQKPGQAPRLLIYGTSTRATGIPARFSGSGSGTEFTLTISSLQSEDFAVYYCQQYETFGQGTKVEIK
# notes: also called G001-59
# B4: G001_LD_07A_VRC01c_58 (antibody, V domains shown)
# VH: QVQLVQSGAEVRKPGASVKVSCKASGYTFTDYYIHWVRQAPGQGLEWMGWINPNSGGTNYAQKFQGWVTMTRDTSISTAHMELRRLRSDDRAVYYCARGVVHSGFEFGYWGQGTLVTVSS
# VL: DIQMTQSPSTLSASVGDRVTITCRASQSISNWLAWYQQKPGKAPKLLIYKASSLESGVPSRFSGSGSGTEFTLTISSLQPDDFATYYCQQYETFGQGTKVEIK
# notes: also called G001-58
# Biological target: T1, eOD-GT8 (Human immunodeficiency virus 1, …)
# T1 construct: also called engineered outer domain germline-targeting version 8; eOD-GT8 monomer
# Assay: SPR; monoclonal IgGs and eOD-GT8; as previously described (ref. 19)
# Conditions: both partners purified
row,Binder,Kd [nM]
1,B1,0.15
2,B2,0.13
3,B3,1.76
4,B4,0.437
